In patent US20200102402A1 (ZYMEDI, published 2020):

Experiments:
[1] = target: T1, KRS fragment with deletion of amino acids at positions 1-71 in the N-terminus (human, UniProt Q15046 72-597); assay: western blotting of lysate of transformed A549 cells
T1 construct: also called fragment 1; denoted by 1
Method: As described above, the scFv antibodies extracted from the periplasm were used to investigate using western blotting whether the scFv antibodies bound to the full-length KRS or respective KRS N-terminal fragments. Then, 30 μg of HCT116 cell lysate was electrophoresed through SDS PAGE, transferred onto PVDF membrane, and then blocked with 3% skim milk. Thereafter, the extracted scFv antibodies were added at 1.0 μg/μl, followed by incubation for 1 h. The unbound scFv antibodies were washed out, and for detection, the scFv binding with antigens were incubated with anti-HA secondary antibodies linked with horseradish peroxidase (HRP), and film sensitization was carried out using ECL reagent as a substrate in a dark room. The sensitized bands were compared with standard molecule markers to identify bands corresponding to sizes of the full-length KRS and the respective fragments.

[2] = target: T2, human lysyl-tRNA synthetase (KRS), full-length (human, UniProt Q15046 1-597); assay: Western blot on lysate of A549 cells transformed with full-length KRS (F), probed with the scFv
T2 construct: also called native KRS; full-length KRS
T2 sequence (Q15046 whole entry): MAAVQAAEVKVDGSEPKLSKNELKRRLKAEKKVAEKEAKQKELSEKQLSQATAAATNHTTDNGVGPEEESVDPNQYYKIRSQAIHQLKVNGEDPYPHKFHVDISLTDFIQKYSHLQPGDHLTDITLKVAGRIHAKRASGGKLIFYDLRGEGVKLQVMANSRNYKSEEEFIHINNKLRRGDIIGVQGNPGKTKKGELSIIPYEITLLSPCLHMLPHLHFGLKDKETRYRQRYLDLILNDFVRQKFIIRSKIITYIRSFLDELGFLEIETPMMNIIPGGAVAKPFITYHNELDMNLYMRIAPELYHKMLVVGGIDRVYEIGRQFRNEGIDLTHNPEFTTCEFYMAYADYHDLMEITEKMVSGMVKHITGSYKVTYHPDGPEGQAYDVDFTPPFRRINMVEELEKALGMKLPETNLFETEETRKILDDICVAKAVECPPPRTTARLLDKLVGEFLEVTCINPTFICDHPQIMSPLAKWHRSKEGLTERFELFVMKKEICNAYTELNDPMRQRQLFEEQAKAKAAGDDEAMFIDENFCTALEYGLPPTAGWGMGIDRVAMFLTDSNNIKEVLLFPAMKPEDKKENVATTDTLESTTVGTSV

[3] = target: T3, myc-KRS T52D (active mutant) (human, UniProt Q15046 2-597); assay: Immunofluorescence on A549 cells transfected with Myc tagged KRS-T52D, fixed with paraformaldehyde
T3 construct: Active mutant whose N-terminal region is exposed on the cell membrane; also called KRS-T52D mutant; T52D-KRS
T3 sequence (Q15046 2-597 T52D): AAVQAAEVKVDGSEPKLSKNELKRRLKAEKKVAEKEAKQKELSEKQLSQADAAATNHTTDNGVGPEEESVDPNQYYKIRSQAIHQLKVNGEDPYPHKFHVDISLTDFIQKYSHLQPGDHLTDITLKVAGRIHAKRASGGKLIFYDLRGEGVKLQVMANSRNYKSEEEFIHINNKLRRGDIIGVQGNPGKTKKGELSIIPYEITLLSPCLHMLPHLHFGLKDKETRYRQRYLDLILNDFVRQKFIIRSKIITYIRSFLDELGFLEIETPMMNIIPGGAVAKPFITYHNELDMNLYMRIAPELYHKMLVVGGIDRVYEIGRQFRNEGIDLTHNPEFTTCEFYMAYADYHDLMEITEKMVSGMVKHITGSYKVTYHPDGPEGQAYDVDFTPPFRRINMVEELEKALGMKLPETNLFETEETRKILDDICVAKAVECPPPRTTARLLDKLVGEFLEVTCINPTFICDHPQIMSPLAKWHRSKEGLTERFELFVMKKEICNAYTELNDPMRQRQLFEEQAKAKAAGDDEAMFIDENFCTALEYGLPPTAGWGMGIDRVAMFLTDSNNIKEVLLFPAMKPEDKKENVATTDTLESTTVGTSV
Method: After incubation for 24 h, the cells were incubated using serum-free media (RPMI 1640 media) at 37° C. for 1 h. Thereafter, the cells were treated with 10 μg/ml laminin (L2020; Sigma) and then incubated at 37° C. for 1 h.
The prepared samples were washed with PBS (4° C.), fixed by the treatment with 4% paraformaldehyde for 10 min, and then washed. The samples were blocked with CAS block for 10 min, and treated with the scFv and Myc antibodies for 2 h. Thereafter, the unbound antibodies were washed out, and incubated with secondary antibodies for 1 h in a dark room. DAPI staining was performed for 10 min before mounting.

[4] = target: T4, KRS fragment composed of amino acid residues 1-200 in the N-terminus (human, UniProt Q15046 1-200); assay: Western blot on lysate of A549 cells transformed with the KRS fragment 1-200 (2), probed with the scFv
T4 construct: also called fragment 2; denoted by 2
T4 sequence (Q15046 1-200): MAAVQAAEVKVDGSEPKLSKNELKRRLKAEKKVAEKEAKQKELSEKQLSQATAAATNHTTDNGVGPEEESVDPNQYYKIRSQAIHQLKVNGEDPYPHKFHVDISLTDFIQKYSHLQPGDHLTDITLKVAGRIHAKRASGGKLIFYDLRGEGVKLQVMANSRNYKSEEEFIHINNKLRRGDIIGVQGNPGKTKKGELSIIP

KRS 1-207 aa = target: T5, KRS 1-207 aa (human, UniProt Q15046 1-207); assay: SPR Biacore 2000, KRS 1-207 immobilised on CM5, antibody 6.25-100 nM as analyte
T5 construct: also called KRS N-terminal region (SPR antigen)
T5 sequence (Q15046 1-207): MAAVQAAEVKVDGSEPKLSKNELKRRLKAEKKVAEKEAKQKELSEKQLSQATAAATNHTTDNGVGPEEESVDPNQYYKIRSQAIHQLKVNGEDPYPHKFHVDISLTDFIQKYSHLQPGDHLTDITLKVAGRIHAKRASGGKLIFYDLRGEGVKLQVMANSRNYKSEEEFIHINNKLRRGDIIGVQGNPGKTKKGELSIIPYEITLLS
Method: After KRS was immobilized on a sensor chip (CM5, GE healthcare, US), antibody proteins (6.25-100 nM), which were serially diluted with HES buffer solution (10 mM HEPES, pH 7.4, 150 mM NaCl, 3 mM EDTA, 0.005% surfactant P20), were allowed to flow at a rate of 30 μl/min for 3 min, and 1 M NaCl/20 mM NaOH was allowed to flow at a rate of 30 μl/min for 3 min, thereby inducing the dissociation of proteins bound to the antigen. Mock IgG was used as control. Specific experiment conditions are as follows:
The affinity was obtained from the kinetic rate constants (ka and kd) and equilibrium dissociation constants (KD) by using BIA evaluation ver. 3.2 software.

T1 sequence (Q15046 72-597, stated change not applied): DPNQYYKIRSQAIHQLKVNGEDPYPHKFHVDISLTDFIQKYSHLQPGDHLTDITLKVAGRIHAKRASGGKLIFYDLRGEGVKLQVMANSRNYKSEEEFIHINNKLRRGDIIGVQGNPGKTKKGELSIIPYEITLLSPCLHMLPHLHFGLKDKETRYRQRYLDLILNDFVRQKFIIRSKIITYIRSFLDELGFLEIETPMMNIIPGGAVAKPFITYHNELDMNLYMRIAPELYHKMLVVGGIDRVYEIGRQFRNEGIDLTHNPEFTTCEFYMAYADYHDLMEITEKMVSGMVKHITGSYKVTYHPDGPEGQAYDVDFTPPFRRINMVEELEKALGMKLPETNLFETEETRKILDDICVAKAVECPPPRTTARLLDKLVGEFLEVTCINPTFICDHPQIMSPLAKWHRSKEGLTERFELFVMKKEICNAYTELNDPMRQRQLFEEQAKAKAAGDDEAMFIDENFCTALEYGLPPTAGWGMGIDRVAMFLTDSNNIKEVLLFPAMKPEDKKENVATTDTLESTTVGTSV

binding result [1]	binding result [2]	binding result [3]	binding result [4]	Kd (KRS 1-207 aa) [nM]	koff (KRS 1-207 aa) [s⁻¹]	kon (KRS 1-207 aa) [M⁻¹ s⁻¹]	Binder
no binding	binds	binds	binds				N5 scFv (scFv, HA-tagged scFv purified on Ni-NTA; also called scFv N5 clone) scFv: EVQLLESGGGLVQPGGSLRLSCAASGFTFSDYAMSWVRQAPGKGLEWVSWIYSGSGNKYYADSVKGRFTISRDNSKNTLYLQMNSLRAEDTAVYYCARMGLDFDYWGQGTLVTVSSGGGGSGGGGSGGGGSQSVLTQPPSASGTPGQRVTISCTGSSSNIGNNYVSWYQQLPGTAPKLLIYDDNQRPSGVPDRFSGSKSGTSASLAISGLRSEDEADYYCGTWDDSLSAYVFGGGTKLTVL
				1.05	0.00328	3.13e+06	N5 IgG (antibody, V domains shown, IgG made from the scFv variable regions) VH: EVQLLESGGGLVQPGGSLRLSCAASGFTFSDYAMSWVRQAPGKGLEWVSWIYSGSGNKYYADSVKGRFTISRDNSKNTLYLQMNSLRAEDTAVYYCARMGLDFDYWGQGTLVTVSS VL: QSVLTQPPSASGTPGQRVTISCTGSSSNIGNNYVSWYQQLPGTAPKLLIYDDNQRPSGVPDRFSGSKSGTSASLAISGLRSEDEADYYCGTWDDSLSAYVFGGGTKLTVL
